Results from patent publication US20100047264A1 (published 2010).
Where no end group is shown, it is not given here.

T1: free (non-NLP) HCV core protein (1-170) (hepatitis C virus (plasmid pCV-H77c), UniProt P27958 1-170)
T1 construct: range 1-170; also called HCV-C170; free HCV-C170; not shown: His6-tag fused at the C-terminus
T1 sequence: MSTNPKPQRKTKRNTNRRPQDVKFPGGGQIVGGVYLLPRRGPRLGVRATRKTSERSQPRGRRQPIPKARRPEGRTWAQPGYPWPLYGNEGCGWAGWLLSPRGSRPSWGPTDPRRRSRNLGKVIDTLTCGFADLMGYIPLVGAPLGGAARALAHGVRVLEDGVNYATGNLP

T2: HCV core protein (1-170) NLPs (hepatitis C virus (plasmid pCV-H77c), UniProt P27958 1-170)
T2 construct: range 1-170; also called HCV-C170 NLP; not shown: His6-tag fused at the C-terminus
T2 sequence: T1 sequence

T3: OmpF porin purified from Salmonella typhi (Salmonella typhi, UniProt Q56113 23-363)
T3 construct: also called S. typhi OmpF; OmpF antigen
T3 sequence: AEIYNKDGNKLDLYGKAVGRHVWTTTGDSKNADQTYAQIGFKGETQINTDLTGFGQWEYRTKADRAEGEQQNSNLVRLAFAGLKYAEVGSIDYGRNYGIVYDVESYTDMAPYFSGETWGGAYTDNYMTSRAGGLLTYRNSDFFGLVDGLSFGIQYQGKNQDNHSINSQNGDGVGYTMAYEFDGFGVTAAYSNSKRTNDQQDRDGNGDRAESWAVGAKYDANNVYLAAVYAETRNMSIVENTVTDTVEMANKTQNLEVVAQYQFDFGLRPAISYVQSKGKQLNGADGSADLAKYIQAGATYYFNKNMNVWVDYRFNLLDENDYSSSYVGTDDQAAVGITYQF

B1: HCV core affinity peptide NASSLRS (peptide)
peptide: NASSLRS
modifications: not fully specified
B2: PapMVCP-STASYTR (VLPs of PapMV coat protein fused to the HCV core affinity peptide STASYTR and a histidine tag) (designed binder)
chain: MASTPNIAFPAITQEQMSSIKVDPTSNLLPSQEQLKSVSTLMVAAKVPAASVTTVALELVNFCYDNGSSAYTTVTGPSSIPEISLAQLASIVKASGTSLRKFCRYFAPIIWNLRTDKMAPANWEASGYKPSAKFAAFDFFDGVENPAAMQPPSGLTRSPTQEERIANATNKQVHLFQAAAQDNNFASNSAFITKGQISGSTPTIQFLPPPETSSTASYTRTRHHHHHH
notes: also called PapSTA; PapMV-STASYTR
B3: HCV core affinity peptide GPSTPIR (peptide)
peptide: GPSTPIR
modifications: not fully specified
B4: HCV core affinity peptide NTPQGMT (peptide)
peptide: NTPQGMT
modifications: not fully specified
B5: HCV core affinity peptide STASYTR (peptide)
peptide: STASYTR
modifications: not fully specified
B6: OmpF affinity peptide FHEFWPT (peptide)
peptide: FHEFWPT
modifications: not fully specified
B7: OmpF affinity peptide FHENWPS (peptide)
peptide: FHENWPS
modifications: not fully specified
B8: HCV core affinity peptide SIQYTGV (peptide)
peptide: SIQYTGV
modifications: not fully specified
B9: HCV core affinity peptide HSPKNLH (peptide)
peptide: HSPKNLH
modifications: not fully specified
B10: HCV core affinity peptide GVQIMGR (peptide)
peptide: GVQIMGR
modifications: not fully specified

Experiments:
[1] = biological target: T1, free (non-NLP) HCV core protein (1-170); assay: phage display panning (Ph.D.-7 library) on HCV-C170 adsorbed to a plate, 4 rounds, elution with target protein
[2] = biological target: T2, HCV core protein (1-170) NLPs; assay: ELISA-type binding assay, HCV-C170 NLP coated at 1 µg/ml, 2-fold serial dilution of PapMVCP-STASYTR, detected with rabbit anti-PapMV CP polyclonal
[3] = biological target: T1, free (non-NLP) HCV core protein (1-170); assay: ELISA-type binding assay, free (non-NLP) HCV-C170 coated at 1 µg/ml, 2-fold serial dilution of PapMVCP-STASYTR, detected with rabbit anti-PapMV CP polyclonal
[4] = biological target: T3, OmpF porin purified from Salmonella …; assay: phage display panning (Ph.D-7 library) on purified OmpF coated on an ELISA plate, 3 rounds

Binder	binding result [1]	also measured
B1	binds	–
B2	–	binding result [2]: binds; binding result [3]: binds
B3	binds	–
B4	binds	–
B5	binds	–
B6	–	binding result [4]: binds
B7	–	binding result [4]: binds
B8	binds	–
B9	binds	–
B10	binds	–
